Experimental data: publication PMC8684761 (Molecular Biology of the Cell, 2021)

Target: T1, 6His-She1 C-terminal fragment (residues 194-338) (S. cerevisiae, UniProt P38200 194-338)
T1 sequence (looked up): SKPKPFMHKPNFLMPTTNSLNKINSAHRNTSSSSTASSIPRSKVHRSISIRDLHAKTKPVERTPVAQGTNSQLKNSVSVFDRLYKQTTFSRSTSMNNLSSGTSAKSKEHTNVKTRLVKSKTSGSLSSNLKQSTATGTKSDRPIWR
Experiment: pull-down

binding result: binds
B1: peptide encompassing the C-terminus of Tub1 (amino acids 415-447), wild type (peptide)
peptide: not shown
